Measurements published in a protein production outcome set (Wang et al. 2014).

Experiment: label from the status in PepcDB records

Sequence	protein production
MISSLSASSSLVSSFVAVKATPVTGPLIPRRDLLSIRIRASSNQNSSGYCFPEKFKSFAKSAILIGAAVSMTGKFSTLPVKAESPVTTIEKTYEEVKEEKLSEITPLSELLDSTPEAVETLRSLLQQKLEKGEDEEALKLLERLVAAQPEETEWKFLMARLLGEMGRPENARQMFEEILQRNPLSFEALFENALLMDRSGEGNAVLQRLEDALAVAEAEYLVKEARDVRLIIAQIHFLQKNVDEALKSYEQLTKEDPKDFRPYFCRGMIYSLLDKNVEAKEQFAKYRELSPKKFEVEGYLRTPLSKMKLFGGSEEN	failed
MARKIGSRYTAHQILGRGSAGTVWLGEGPDGPVAIKLLREDLASDQELVSRFVQERTALLGLDHPHVVSVRDLVVDGNDLALVMDLVRGTDLRTRLDRERRLAPEAAVAVVADVADGLAAAHAAGVVHRDVKPENVLLDMQGPLGPGGSHPALLTDFGVAKLIDTPRRTRATKIIGTPDYLAPEIVEGLPPRAAVDIYALATVLYELLAGFTPFGGGHPGAVLRRHVTETVVPLPGIPDELWQLLVQCLAKAPASRLRASELSARLRELLPMLAGMAPLDVDEPDAEQPEDAPDASAASPAAPVSTAEPVRRRGAVPLVPGAKPADSNRDTHTSMRVPAPDELAGGARGTARAPRASGAPRPGSARNRAATRRRRIAVGAGAVALVAAIGVGTWLATGGDEDGGGPQDTRNSAPAAP	failed
MKHEAIGHDTIAKFLLTSGSTGNPKAVINTQRMICANQVMIREAMAFLKDEPPVIVDWLPWNHTFGGNHNIGLTLFNGGSMYIDDGKPTPAGIASTIRNLREIAPTVYFNVPKGYESLLPVLREDQQLRKLFFSRLHAMFFSGASLAAHVWNGLDEVAVAETGARVPMLTGLGATETAPFFMSVTPQTSRSGHVGLEHHHHHH	failed
MPYLLLTLAALFWGGNYVVGHVLVQGVDPILMTEARWALTALLLGLLYRRQIAGSRRLLRANAPAVVVLTLCGQVSFPLTLYIGLQTTSALNAAIYMSATPSMVLLINRLFFRDPVSGRNWLGVAFSTLGVMILLFQGNPLHAASLHTFAIGDLWAMGSALSWALYCSLLRLKDRRIPANGFVAVSSLLGALILVPIVIFWLMRHPAQDWAAWREPFFLSGLAYLVIFPSWLAYLFWNKGIATIGATRGEIYTHIIPLSGGVLSILFLHTQPHAWHLFSALFIMVGIGICSLEKRQAASIRLRD	failed
MSLSMPVPEGADAAAKEMALSDMIPYTVHYDDESVITKDDGLVQVIKLDGLYFESLTAEQIKQFERRRNTVLRSIANSDRGVYVHLIRRKVNLYPAGEGGTWFARRFNQAWRERYNKRSFYVNEIYISIVRNRFRQGAPGILDRAFSLVSGSKITKEDLESFEEQAKDVNEAANLVVQTLSGYGARKLRIQRRPEFVLDRVSRADAQVAVERFKMSWQEFQRSHGHHEVYSRDEVLDYLGEDFSEIGGFLHYLVNLEDERVPVTEMQLDRTLAVSYLDFKMLSNMMAVQNLSGTRAGAMLSMAEWPARTPSRMLDEFLKQPVEYIITQSFFFTDRISAEHDMRQERRRIAVNDREGVAEEDKDEITKGLQDLTRGRSVNGLHHLTMLVHVPATTQFADPIENKRQTIADLDGAVGLLKKAFVNLGVKPVREWFAMETFFWAQLPGQAQHFMGRRGKIKSGNFAGFASLHNFAVGKIDGNLWGPAIMPFETESGTAYYFSFHREMEGMVAGHTAFTADTGAGKTTLLAALIAMGDKAYPRVFWFDNREGAKVFMCAMGGQHTTLTVQGSTGWNPMKLPDTPENRAYLVELLTLMRTCYGGKIVPDDIDRFKKAVHENYALAYPDRRLLNVAWCFGQGELAKDMRVWHGANGIEGANWGVFDNEHDNIDLTNCRHYCYEMRQLIKDGTARPELPVVLSYPFHRIEQSMNGEPFILVLEEGQNLVKHAYWREKIDSYIMQIRRKNGLLVFVTPDAKYLYCETDSIQKQTATKIYLPNGEAKRTDLVDVLGLTPAEYEFVRDTPPENRTFLIRRGNESIKAKFDLSDMPEFIPVLSSNDKGVALMEEIIRELETDDPEQWVPVFMERALAKNTHNLKQKGA	failed
MIDTFERTGPLMEASSYPAWAQQLINDCSPAKARVVEHELYQQMRDAKLSPQIMRQYLIGGWPVVEQFAVYMAKNLTKTRFGRHPGEDMARRWLMRNIRVELNHADYWVNWCAAHDVTLEDLHDQRVAPELHALSHWCWQTSSSDSLAVAMAATNYAIEGATGEWSAVVCSTGVYAEAFAEETRKKSMKWLKMHAQYDDAHPWEALEIICTLVGNKPSLQLQAELRQAVTKSYDYMYLFLERCIQLDKVKSPRGRVAALEM	not failed
MQFIKRAHGEEQPYWPAGPFKIRLPFVHYRWELPEMIQGFFMFVVGLAMIPLLESYLGMPYEAALAFTFVAGVGYILPALLGVPLVPGWITPAIPVVLLYLKGFEPGPEAIRALFALQIEVAIIFLILGATRLGSKLVDVIPNSLKCGIIIGAGMAAMMGELKIGGRIDATPISLIVGSIISAYILFSLSFKNVINENSFARKIANFGMVPGMIIAMLVGWTVGEYPLPDIKWGITNPDFSLMWQYLPFTVGYPDWEIFLLAIPTALIAYVIAFGDILVGFTLVNRVDHIRKDEKIEENVDRVHLVTAIRNGFHAFLAPWPGLAGPLWTAAHATVAERYAMGRKSMESIYSGGGTFWMSGLLALFALPLVTLFKPVLPIALSLTLVLTAYICIMVGMEQLKNSTERGVAGIVAVTLAMPDPKSTMYAVCIGVILYFLIERPRLMGKHNSEDNIIFADETQEEVAVTNSNNT	failed
MKRSIAPLLVCPACLPKERPLELTATAEADGDITAGHLSCKGCRRRFPIRDGIAVLLPDPDTGPSGGQWKYEEQGTLATYLWSHFADLAGDPEAGDAYASWASALAGNAETSLDAGCAVGRLTFELGQRSGLAVGFDLSLTFIRAARQLARERQIRFSLPREGNLRDEFRLTLPDCWRTDEVEFVVADALAIPFARETFDRTASLNLIDRVSYPLAHLYEMNRVARLSGASFLLSDPFSWSTANAPEEKWLGGTESGPYSGRGMDNVKAILGGKEAIIAPPWTVAREGSVWWKIRSHRNHFELIRSEFLVAERLEHHHHHH	failed
MLVPLPVREIMRTPVKTISPSAPVIEAAQRLRDEDIGSLVVEDDGSCVGIITESDIVAVTAAEGDTRALSVGDVMAETLVTVAPDADMQAAVDRLQTNNIKKLPVVEDGSLVGIVTTTDLSDYIPHLSRAVRMSNDQSQQKRFTRPDTLYENEDWTFESYGTADGIDVGDHVEFSKTISKADVEAFAEASGDTNRLHLDATFADGTRFGRRIVHGTLVSGIISAALARLPGLTIYLSQELSYQGPVDIDEEVTARCEVVERIQDNRFRLATAVDDSEGNCVIEGDAVVISDPIPDTA	failed
MYELTEDFKLRKITKYELDGVDEREDLLVIPPSSKAGPCGNGCLFCYLLQNPPEMIYRVARHDTLNDPTLEERIRYARKHYDLWIRVTDTSGNVKFDENRIKSLYEAGLDEIQISVHTTKKDVRIKLMRNRHAGKLIDLLPLVAKHFRTIADIILTPGFNVDDIGEIIEDLDSMGVHEVRLFPVGVTKYNRFEIRPLTKEE	failed
MPIVVFHKGDETFTDEVKDNTNLVVRAGIKQFPYPNLRYQCGMGKCATCACRILAGGEHLPEPNWKEKKQLGDRLAQGYRLACQLWITHDIELRQDAAAPAGGGD	failed
MVFCRGCAKEISDDAGTCPHCGAPQLIISSASANKEAPASGNWYFEVLKKYAVFTGRARRKEYWMFFLFNVLISIVIGVIGGLVGDGGILANLYSLAVLVPGIAVGVRRLHDTDRSGWWLLVPIANLVFLVQEGHAGPNRFGPSPK	failed
TSSISPAKMANGTAGTKVALRKTKQAAEKISADKISKEALLECADLLSSALTEPVPNSQLVDTGHQLLDYCSGYVDCIPQTRNKFAFREA	failed
MDTQNLPDQIIPIFMSFDKNYALGASVSLYSLLSHASRHTSMIDFSPLNQSNKLLGANIVYKIHCLVKGVTLEQQNKLLKTIAPFKKFASLEFIHINSLDHSIESYLNKSCSKRYGGLLVLCRLLLASLFPNYSKIISIDADTVFLGDVASAYFALDNDPTKSLGMVRDTFSHLSFEAFCDFCKRACKNFKIDFSRFSPDELKRIHQGFNMGFLVAHLDRWRQDGFEKTALEFLKTRGKDLFYPEQCLVNMVFWERILELPIYYNCYSDFFKEHYPKNIIMLHFIKYKPWRSVSSLNGRLICYEAEASFWLANLFHTPFKNDFFKERLEMAKDQQMQSFKTHIRSQTIRNYLGFRVKNILKKVFKLSLEHHHHHH	not failed
MMYRNQCTAKEKLMNRINEVSFAVNDVLLYLDTHPCCEEAISFYQECEQERQKLLKEYAQCYGPLTVDAALESGGDTWKWVQQPFPWETEGGCRLEHHHHHH	not failed
MIDIHSHIVFDVDDGPKTLEESLSLIEESYRQGVRIIVSTSHRRKGMFETPEDIIFKNFSIVKHEAEKRFEHLQILYGGELYYTSDMLEKLKLKQIPTLNNTKFALIEFSMQTSWKDIHTALSNVLMLGITPVVAHIERYNALENQKERVKEIINMGCYTQINSSHILKQKLFNDKHKRFKKRARYFLEENLVHFVASDMHNLDVRPPFLAEAYKIICRDFGKERANQLFIENAQSILKNHYI	failed
MRSTEVGRVVEDFIVLPPTPKSKWKLSDFELLHKLGGGNYGDVHLASVKDCNFVCALKRLSIKKLADFDIATQLRREIEIAFNTRHKYLLRTYAYFFDETDIYLIMEPCSNGMLYTELNRVKCFAPPTAARYVAQLAEALLYLHQHHILHRDIKPENILLDHNNNIKLADFGWSVHDPDNRRKTSCGTPEYFPPEIVGRQAYDTSADLWCLGIFCYELLVGKTPFVGKDTDQICKNIHSMHFKIPENIPSEAKDLIANLLLRDGSRRLALHRVVNHQFLLKYYYLPNNLQPPTGKRPRLDAEPTAGKEN	failed
MPRKKKTVEDPALTRALKVMEAGALPDADLAAEFATLAESYGKLLRKFNKTLVISDAYEAQHQAMAKKLEEATWKYRQLKDVALPICMYCKKIRSDDDYWQRLETFFCNHADIMFSHGICPDCIKTAYEKMGMNRRAMPLPDAAVTGQPAASPERQPVEDDALREMRALVRRSAFDGSPVAPEVEQFVEKYGKLLRRFSKIVSISDSYQSQLRELNARLELMARTDLLTGLANHWEMVMRLAAEQSRSERNGKVFSIVLADIDHFKKVNDTHGHQAGDRVIRGIADTLRTNIRREDICSRWGGEEFLIILPEADLPRAGAVAAKLLAKVRNTVVPWDGRDIRVTVSIGYGTSEPGMSVDELIRRVDDALYSAKAAGRDRFAAAGSRADV	failed
MEVKKELNAQSGKKSLMTIENRKRLLLTGVSEVVNFNDEQIVLNTNLGSLIIKGRELKMNKLDVQNGDIAITGTINAVYSGNESSNKKDSIISRLFKLEHHHHHH	failed
PNFEKMKKEVEEILYNLKKEGGKYHCILAFSGGKDSVLALKLLKEKFKLNPLCVMVDNKYMAKEAIENALNVTKHYQVDLMILNRDYTDLFEDAIKRGESPCRRCSRLILREVWRVTKLLGLKYIITGHELP	not failed
MTPIPLINIPLCNLAGDGYILSEKSQSQNMLRGIVMSETVRVGLLGYGYASKTFHAPLIAGTAGMELVAVSSSNAEKVHADWANLRVEKDPQALFSDPDIDLIVIPTPNDTHFPLAKQALEAGKHVVVDKPFTVTLSQAYDLGAIAERAGKVLSVFHNRRWDSDFLTLKQLLSAGTLGNVVYMESHFDRFRPEVRQRWREDGSEGSGIWYDLGPHLLDQALELFGLPVAIQVDMAQLRPGSKATDYFHATLIYPQRRVILHASMLVAAASARYTVHGTRGSFVKYGLDPQEDRLKAGERPPLADWGQDKHDGVLTLSRDGITAEQTIATIPGNYPAYYAAVRDALLGKGENPVGVNQAIQVMELIELGLLSHEQKKAVALKNSLEHHHHHH	failed
